This note sets out measurements from patent US20240158459A1 (KYVERNA THERAPEUTICS, published 2024).

First the molecules themselves.
B1: MAdCAM1 scFv 17.7 (scFv)
scFv: EVQLVESGGGLVKPGGSLRLSCAASGFSFSSTYYMCWVRQAPGKGLEWVSCIYTGSGNTDYASWAKGRFTISRDNAKNSLYLQMNSLRAEDTAVYYCARGGIVDSYFTYFDLWGQGTLVTVSSGGGGSGGGGSGGGGSDIQMTQSPSTLSASVGDRVTITCQASESIFSNLAWYQQKPGKAPKLLIYWASTLASGVPSRFSGSGSGTEFTLTISSLQPDDFATYYCQSYVYSSSSSNDFGGGTKVEIK
notes: Humanized rabbit-derived scFv, VH-(G4S)3-VL
B2: MAdCAM1 scFv 17.3 (scFv)
scFv: QVQLLESGGGLVKPGGSLRLSCAASGFSFSSTYYMCWIRQAPGKGLEWVSCIYTGSGNTDYASWAKGRFTISRDNAKNSLYLQMNSLRAEDTAVYYCARGGIVDSYFTYFDLWGQGTLVTVSSGGGGSGGGGSGGGGSDIQMTQSPSTLSASVGDRVTITCQASESIFSNLAWYQQKPGKAPKLLIYWASTLASGVPSRFSGSGSGTEFTLTISSLQPDDFATYYCQSYVYSSSSSNDFGGGTKVEIK
notes: as for B1
B3: MAdCAM1 scFv 17.1 (scFv)
scFv: EVQLVESGGGLVQPGGSLRLSCAASGFSFSSTYYMCWVRQAPGKGLEWVSCIYTGSGNTDYASWAKGRFTISRHNSKNTLYLQMNSLRAEDTAVYYCARGGIVDSYFTYFDLWGQGTLVTVSSGGGGSGGGGSGGGGSDIQMTQSPSTLSASVGDRVTITCQASESIFSNLAWYQQKPGKAPKLLIYWASTLASGVPSRFSGSGSGTEFTLTISSLQPDDFATYYCQSYVYSSSSSNDFGGGTKVEIK
notes: as for B1
B4: MAdCAM1 scFv 32.3 (scFv)
scFv: EVQLLESGGGLVQPGGSLRLSCAASGFSFSSSYWICWVRQAPGKGLEWVSCIYGGSSGATYYANWAKGRFTISRDNSKNTLYLQMNSLRAEDTAVYYCARSGSTTSGGVYRWYFNLWGQGTLVTVSSGGGGSGGGGSGGGGSDIQMTQSPSSLSASVGDRVTITCQASENIYNLLAWYQQKPGKVPKLLIYDASTLQSGVPSRFSGSGSGTDFTLTISSLQPEDVATYYCQFTYYGGTYESAFGGGTKVEIK
notes: as for B1
B5: MAdCAM1 scFv 32.4 (scFv)
scFv: EVQLLESGGGLVQPGGSLRLSCAASGFSFSSSYWICWVRQAPGKGLEWVSCIYGGSSGATYYANWAKGRFTISRDNSKNTLYLQMNSLRAEDTAVYYCARSGSTTSGGVYRWYFNLWGQGTLVTVSSGGGGSGGGGSGGGGSDIQMTQSPSSLSASVGDRVTITCQASENIYNLLAWYQQKPGKAPKLLIYDASNLETGVPSRFSGSGSGTDFTFTISSLQPEDIATYYCQFTYYGGTYESAFGGGTKVEIK
notes: as for B1
B6: MAdCAM1 scFv 32.5 (scFv)
scFv: QVQLVESGGGVVQPGRSLRLSCAASGFSFSSSYWICWVRQAPGKGLEWVACIYGGSSGATYYANWAKGRFTISRDNSTNTLFLQMNSLRAEDTAVYYCARSGSTTSGGVYRWYFNLWGQGTLVTVSSGGGGSGGGGSGGGGSDIQMTQSPSSLSASVGDRVTITCQASENIYNLLAWYQQKPGKVPKLLIYDASTLQSGVPSRFSGSGSGTDFTLTISSLQPEDVATYYCQFTYYGGTYESAFGGGTKVEIK
notes: as for B1
B7: MAdCAM1 scFv 32.7 (scFv)
scFv: EVQLVESGGGLVQPGGSLRLSCAASGFSFSSSYWICWVRQAPGKGLEWVSCIYGGSSGATYYANWAKGRFTISRHNSKNTLYLQMNSLRAEDTAVYYCARSGSTTSGGVYRWYFNLWGQGTLVTVSSGGGGSGGGGSGGGGSDIQMTQSPSSLSASVGDRVTITCQASENIYNLLAWYQQKPGKVPKLLIYDASTLQSGVPSRFSGSGSGTDFTLTISSLQPEDVATYYCQFTYYGGTYESAFGGGTKVEIK
notes: as for B1
B8: MAdCAM1 scFv 32.8 (scFv)
scFv: EVQLVESGGGLVQPGGSLRLSCAASGFSFSSSYWICWVRQAPGKGLEWVSCIYGGSSGATYYANWAKGRFTISRHNSKNTLYLQMNSLRAEDTAVYYCARSGSTTSGGVYRWYFNLWGQGTLVTVSSGGGGSGGGGSGGGGSDIQMTQSPSSLSASVGDRVTITCQASENIYNLLAWYQQKPGKAPKLLIYDASNLETGVPSRFSGSGSGTDFTFTISSLQPEDIATYYCQFTYYGGTYESAFGGGTKVEIK
notes: as for B1
B9: MAdCAM1 scFv 32.6 (scFv)
scFv: QVQLVESGGGVVQPGRSLRLSCAASGFSFSSSYWICWVRQAPGKGLEWVACIYGGSSGATYYANWAKGRFTISRDNSTNTLFLQMNSLRAEDTAVYYCARSGSTTSGGVYRWYFNLWGQGTLVTVSSGGGGSGGGGSGGGGSDIQMTQSPSSLSASVGDRVTITCQASENIYNLLAWYQQKPGKAPKLLIYDASNLETGVPSRFSGSGSGTDFTFTISSLQPEDIATYYCQFTYYGGTYESAFGGGTKVEIK
notes: as for B1
B10: MAdCAM1 scFv 8.2 (scFv)
scFv: EVQLVESGGGLVQPGGSLRLSCAASGFTLSSSYYMYWVRQAPGKGLEWVSVIYAGDGNTYYASWAKGRFTISRDNSKNTLYLQMNSLRAEDTAVYYCARGYVGYGYAIDLWGQGTLVTVSSGGGGSGGGGSGGGGSAIQLTQSPSSLSASVGDRVTITCQASQSIYSSLAWYQQKPGKAPKLLIYYASILPSGVPSRFSGSGSGTDFTLTISSLQPEDFATYYCQATTYDSTYPNAFGGGTKVEIK
notes: as for B1
B11: MAdCAM1 scFv 8.7 (scFv)
scFv: EVQLVETGGGLIQPGGSLRLSCAASGFTLSSSYYMYWVRQAPGKGLEWVSVIYAGDGNTYYASWAKGRFTISRDNSKNTLYLQMNSLRAEDTAVYYCARGYVGYGYAIDLWGQGTLVTVSSGGGGSGGGGSGGGGSDIQMTQSPSTLSASVGDRVTITCQASQSIYSSLAWYQQKPGKAPKLLIYYASILPSGVPSRFSGSGSGTEFTLTISSLQPDDFATYYCQATTYDSTYPNAFGGGTKVEIK
notes: as for B1
B12: MAdCAM1 scFv 8.5 (scFv)
scFv: QVQLVESGGGVVQPGRSLRLSCAASGFTLSSSYYMYWVRQAPGKGLEWVAVIYAGDGNTYYASWAKGRFTISRDNSKNTLYLQMNSLRAEDTAVYYCARGYVGYGYAIDLWGQGTLVTVSSGGGGSGGGGSGGGGSDIQMTQSPSTLSASVGDRVTITCQASQSIYSSLAWYQQKPGKAPKLLIYYASILPSGVPSRFSGSGSGTEFTLTISSLQPDDFATYYCQATTYDSTYPNAFGGGTKVEIK
notes: as for B1
B13: MAdCAM1 scFv 8.8 (scFv)
scFv: EVQLVETGGGLIQPGGSLRLSCAASGFTLSSSYYMYWVRQAPGKGLEWVSVIYAGDGNTYYASWAKGRFTISRDNSKNTLYLQMNSLRAEDTAVYYCARGYVGYGYAIDLWGQGTLVTVSSGGGGSGGGGSGGGGSAIQLTQSPSSLSASVGDRVTITCQASQSIYSSLAWYQQKPGKAPKLLIYYASILPSGVPSRFSGSGSGTDFTLTISSLQPEDFATYYCQATTYDSTYPNAFGGGTKVEIK
notes: as for B1
B14: MAdCAM1 scFv 8.1 (scFv)
scFv: EVQLVESGGGLVQPGGSLRLSCAASGFTLSSSYYMYWVRQAPGKGLEWVSVIYAGDGNTYYASWAKGRFTISRDNSKNTLYLQMNSLRAEDTAVYYCARGYVGYGYAIDLWGQGTLVTVSSGGGGSGGGGSGGGGSDIQMTQSPSTLSASVGDRVTITCQASQSIYSSLAWYQQKPGKAPKLLIYYASILPSGVPSRFSGSGSGTEFTLTISSLQPDDFATYYCQATTYDSTYPNAFGGGTKVEIK
notes: as for B1
B15: MAdCAM1 scFv 8.4 (scFv)
scFv: EVQLLESGGGLVQPGGSLRLSCAASGFTLSSSYYMYWVRQAPGKGLEWVSAIYAGDGNTYYASWAKGRFTISRDNSKNTLYLQMNSLRAEDTAVYYCARGYVGYGYAIDLWGQGTLVTVSSGGGGSGGGGSGGGGSAIQLTQSPSSLSASVGDRVTITCQASQSIYSSLAWYQQKPGKAPKLLIYYASILPSGVPSRFSGSGSGTDFTLTISSLQPEDFATYYCQATTYDSTYPNAFGGGTKVEIK
notes: as for B1
B16: MAdCAM1 scFv 8.6 (scFv)
scFv: QVQLVESGGGVVQPGRSLRLSCAASGFTLSSSYYMYWVRQAPGKGLEWVAVIYAGDGNTYYASWAKGRFTISRDNSKNTLYLQMNSLRAEDTAVYYCARGYVGYGYAIDLWGQGTLVTVSSGGGGSGGGGSGGGGSAIQLTQSPSSLSASVGDRVTITCQASQSIYSSLAWYQQKPGKAPKLLIYYASILPSGVPSRFSGSGSGTDFTLTISSLQPEDFATYYCQATTYDSTYPNAFGGGTKVEIK
notes: as for B1

The test concerns the target T1, biotinylated-MADCAM-1 antigen (human, UniProt Q13477 19-317, limits assumed, biotinylated (site not stated)).
T1 construct: The BLI paragraph says only 'biotinylated-MADCAM-1 antigen'; also called mucosal addressin cell adhesion molecule 1
T1 sequence (looked up): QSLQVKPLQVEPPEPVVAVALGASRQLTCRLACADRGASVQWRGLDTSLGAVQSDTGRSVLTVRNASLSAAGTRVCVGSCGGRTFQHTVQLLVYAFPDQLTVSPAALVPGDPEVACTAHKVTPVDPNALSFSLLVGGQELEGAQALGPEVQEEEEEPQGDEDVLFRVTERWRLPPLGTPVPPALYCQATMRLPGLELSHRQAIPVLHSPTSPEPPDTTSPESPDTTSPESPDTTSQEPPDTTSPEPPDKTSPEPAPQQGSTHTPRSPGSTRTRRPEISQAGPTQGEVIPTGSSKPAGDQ
The experiment in a line: BLI, biotinylated MADCAM-1 on streptavidin biosensors, scFv titrated, global 1:1 fit. The method, then:
Binding affinity (KD) of MADCAM-1 scFv antibodies from Table 2 was measured using biolayer interferometry (See also FIG. 6). Streptavidin biosensors were loaded for 5 seconds with 10 Tg/mL biotinylated-MADCAM-1 antigen followed by acquisition of the baseline signal in phosphate buffer saline supplemented with bovine serum albumin and sodium azide. For the association step loaded probes were incubated for 250 seconds with a titration of anti-MADCAM-1 scFv antibodies at concentrations generally between 0 nM and 2 TM. This was followed by a dissociation step in buffer lacking anti-MADCAM-1 scFv for 250 seconds. Experimental data was normalized to a reference probe and high-frequency noise was removed by Savitzky-Golay filtering. On and off-rate constants were determined using a globally fitted 1:1 binding model.
In general, Kd refers to a measure of binding affinity in units of concentration. One may read the koff as the rate constant with which the complex falls apart. A higher koff goes with a short-lived complex. A word on the kon: it is the rate constant with which the complex forms. Higher therefore signals fast association. In turn, B1 had a Kd of 1.8 nM, a koff of 0.000537 s⁻¹ and a kon of 300000 M⁻¹ s⁻¹.
As for B2, binding was characterised by a dissociation constant (Kd) of 2.9 nM, the koff came to 0.000868 s⁻¹ and the kon came to 304000 M⁻¹ s⁻¹.
B3 had a Kd of 2.3 nM, a koff of 0.000568 s⁻¹ and a kon of 247000 M⁻¹ s⁻¹.
The like results for B4 were, in that order, 12.1 nM, 0.00491 s⁻¹ and 407000 M⁻¹ s⁻¹.
For B5, the Kd is 18.7 nM, the koff stood at 0.0108 s⁻¹ and the kon turned out to be 577000 M⁻¹ s⁻¹.
The molecule B6 came in with a Kd of 5.4 nM, a koff of 0.00146 s⁻¹ and a kon of 272000 M⁻¹ s⁻¹.
Molecule B7 displayed a Kd of 23.8 nM, a koff of 0.00991 s⁻¹ and a kon of 416000 M⁻¹ s⁻¹.
The molecule B8 came in with a dissociation constant (Kd) of 15.5 nM, a koff of 0.0083 s⁻¹ and a kon of 534000 M⁻¹ s⁻¹.
The like results for B9 were, in that order, 6.7 nM, 0.00219 s⁻¹ and 327000 M⁻¹ s⁻¹.
As to B10, the Kd is 78 nM, the koff came to 0.00295 s⁻¹ and the on-rate constant (kon) was 37800 M⁻¹ s⁻¹.
B11 yielded a Kd of 258 nM, a koff of 0.00428 s⁻¹ and a kon of 16600 M⁻¹ s⁻¹.
As to B12, the Kd was found to be 114 nM, the koff stood at 0.00158 s⁻¹ and the kon amounted to 13800 M⁻¹ s⁻¹.
The like results for B13 were, in that order, 311 nM, 0.00696 s⁻¹ and 22400 M⁻¹ s⁻¹.
For B14, binding was put at a Kd of 89.9 nM, the koff was 0.00186 s⁻¹ and the kon was 20700 M⁻¹ s⁻¹.
The molecule B15 came in with a Kd of 30.9 nM, a koff of 0.000393 s⁻¹ and a kon of 12700 M⁻¹ s⁻¹.
Take B16: the Kd came to 84.8 nM, the koff was determined as 0.00218 s⁻¹ and the kon is 25700 M⁻¹ s⁻¹.
